Data as given in publication PMC6251370.

Molecular target: recombinant N-terminal SH3 domain (SH3N) of CRKL with a C-terminal hexahistidine tag (human)
Assay: dynamic mass redistribution

Kd: 7.38 µM
Binder: QPPPVPAKKS [peptide corresponding to the second PXXPXK motif of SASH1 (aa982–991)]
